# Experimental data: the supplement of paper PMC11811203
# B1: THAP1; numbered along this chain (parent)
# chain: MVQSCSAYGCKNRYDKDKPVSFHKFPLTRPSLCKEWEAAVRRKNFKPTKYSSICSEHFTPDCFKRECNNKLLKENAVPTIFLCTEPHDKKEDLLEPQEQLPPPPLPPPVSQVDAAIGLLMPPLQTPVNLSVFCDHNYTVEDTMHQRKRIHQLEQQVEKLRKKLKTAQQRCRRQERQLEKLKEVVHFQKEKDDVSERGYVILPNDYFEIVEVPA
# Variants of: B1
# Test: THAP1 transcriptional activity (GFP+/GFP- enrichment relative to wild-type constructs) (ratio to WT); higher = more THAP1 activity (PSMB5 reporter activation)
# Conditions: with PSMB5 promoter-GFP reporter
# Outline: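 A lentiviral site-saturation library covering residues 2–213 of human THAP1, with each position changed to all 20 amino acids, was transduced in duplicate at MOI ~0.3 into THAP1-knockout HEK-293T cells with mClover3 knocked in at endogenous PSMB5. Five days later, BFP+ cells were sorted into GFP-dim and GFP-bright bins and variants were counted by Illumina sequencing of genomic DNA amplicons. Activity is the bright/dim read fold change averaged over replicates and divided by the mean of wild-type synonymous constructs.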
row,Variant,THAP1 transcriptional activity
1,MVQSCSAYGCKNRYDKDKPVSFHKFPLTRPSLCKEWEAAVRRKNFKPTKYSSICSEHFTPDCFKRECNNKLLKENAVPTIFLCPEPHDKKEDLLEPQEQLPPPPLPPPVSQVDAAIGLLMPPLQTPVNLSVFCDHNYTVEDTMHQRKRIHQLEQQVEKLRKKLKTAQQRCRRQERQLEKLKEVVHFQKEKDDVSERGYVILPNDYFEIVEVPA [T84P],1.44
2,MVQSCSAYGCKNRYDKDKPVSFHKFPLTRPSLCKEWEAAVRRKNFKPTKYSSICSEHFTPDCFKRECNNKLLKENAVPTIFLCYEPHDKKEDLLEPQEQLPPPPLPPPVSQVDAAIGLLMPPLQTPVNLSVFCDHNYTVEDTMHQRKRIHQLEQQVEKLRKKLKTAQQRCRRQERQLEKLKEVVHFQKEKDDVSERGYVILPNDYFEIVEVPA [T84Y],1.82
3,MVQSCSAYGCKNRYDKDKPVSFHKFPLTRPSLCKEWEAAVRRKNFKPTKYSSICSEHFTPDCFKRECNNKLLKENAVPTIFLCIEPHDKKEDLLEPQEQLPPPPLPPPVSQVDAAIGLLMPPLQTPVNLSVFCDHNYTVEDTMHQRKRIHQLEQQVEKLRKKLKTAQQRCRRQERQLEKLKEVVHFQKEKDDVSERGYVILPNDYFEIVEVPA [T84I],0.739
4,MVQSCSAYGCKNRYDKDKPVSFHKFPLTRPSLCKEWEAAVRRKNFKPTKYSSICSEHFTPDCFKRECNNKLLKENAVPTIFLCREPHDKKEDLLEPQEQLPPPPLPPPVSQVDAAIGLLMPPLQTPVNLSVFCDHNYTVEDTMHQRKRIHQLEQQVEKLRKKLKTAQQRCRRQERQLEKLKEVVHFQKEKDDVSERGYVILPNDYFEIVEVPA [T84R],1.39
5,MVQSCSAYGCKNRYDKDKPVSFHKFPLTRPSLCKEWEAAVRRKNFKPTKYSSICSEHFTPDCFKRECNNKLLKENAVPTIFLCSEPHDKKEDLLEPQEQLPPPPLPPPVSQVDAAIGLLMPPLQTPVNLSVFCDHNYTVEDTMHQRKRIHQLEQQVEKLRKKLKTAQQRCRRQERQLEKLKEVVHFQKEKDDVSERGYVILPNDYFEIVEVPA [T84S],0.852
6,MVQSCSAYGCKNRYDKDKPVSFHKFPLTRPSLCKEWEAAVRRKNFKPTKYSSICSEHFTPDCFKRECNNKLLKENAVPTIFLCWEPHDKKEDLLEPQEQLPPPPLPPPVSQVDAAIGLLMPPLQTPVNLSVFCDHNYTVEDTMHQRKRIHQLEQQVEKLRKKLKTAQQRCRRQERQLEKLKEVVHFQKEKDDVSERGYVILPNDYFEIVEVPA [T84W],1.97
7,MVQSCSAYGCKNRYDKDKPVSFHKFPLTRPSLCKEWEAAVRRKNFKPTKYSSICSEHFTPDCFKRECNNKLLKENAVPTIFLCMEPHDKKEDLLEPQEQLPPPPLPPPVSQVDAAIGLLMPPLQTPVNLSVFCDHNYTVEDTMHQRKRIHQLEQQVEKLRKKLKTAQQRCRRQERQLEKLKEVVHFQKEKDDVSERGYVILPNDYFEIVEVPA [T84M],1.23
8,MVQSCSAYGCKNRYDKDKPVSFHKFPLTRPSLCKEWEAAVRRKNFKPTKYSSICSEHFTPDCFKRECNNKLLKENAVPTIFLCEEPHDKKEDLLEPQEQLPPPPLPPPVSQVDAAIGLLMPPLQTPVNLSVFCDHNYTVEDTMHQRKRIHQLEQQVEKLRKKLKTAQQRCRRQERQLEKLKEVVHFQKEKDDVSERGYVILPNDYFEIVEVPA [T84E],4.49
9,MVQSCSAYGCKNRYDKDKPVSFHKFPLTRPSLCKEWEAAVRRKNFKPTKYSSICSEHFTPDCFKRECNNKLLKENAVPTIFLCCEPHDKKEDLLEPQEQLPPPPLPPPVSQVDAAIGLLMPPLQTPVNLSVFCDHNYTVEDTMHQRKRIHQLEQQVEKLRKKLKTAQQRCRRQERQLEKLKEVVHFQKEKDDVSERGYVILPNDYFEIVEVPA [T84C],0.907
10,MVQSCSAYGCKNRYDKDKPVSFHKFPLTRPSLCKEWEAAVRRKNFKPTKYSSICSEHFTPDCFKRECNNKLLKENAVPTIFLCQEPHDKKEDLLEPQEQLPPPPLPPPVSQVDAAIGLLMPPLQTPVNLSVFCDHNYTVEDTMHQRKRIHQLEQQVEKLRKKLKTAQQRCRRQERQLEKLKEVVHFQKEKDDVSERGYVILPNDYFEIVEVPA [T84Q],1.65
11,MVQSCSAYGCKNRYDKDKPVSFHKFPLTRPSLCKEWEAAVRRKNFKPTKYSSICSEHFTPDCFKRECNNKLLKENAVPTIFLCHEPHDKKEDLLEPQEQLPPPPLPPPVSQVDAAIGLLMPPLQTPVNLSVFCDHNYTVEDTMHQRKRIHQLEQQVEKLRKKLKTAQQRCRRQERQLEKLKEVVHFQKEKDDVSERGYVILPNDYFEIVEVPA [T84H],0.92
12,MVQSCSAYGCKNRYDKDKPVSFHKFPLTRPSLCKEWEAAVRRKNFKPTKYSSICSEHFTPDCFKRECNNKLLKENAVPTIFLCFEPHDKKEDLLEPQEQLPPPPLPPPVSQVDAAIGLLMPPLQTPVNLSVFCDHNYTVEDTMHQRKRIHQLEQQVEKLRKKLKTAQQRCRRQERQLEKLKEVVHFQKEKDDVSERGYVILPNDYFEIVEVPA [T84F],1.21
13,MVQSCSAYGCKNRYDKDKPVSFHKFPLTRPSLCKEWEAAVRRKNFKPTKYSSICSEHFTPDCFKRECNNKLLKENAVPTIFLCLEPHDKKEDLLEPQEQLPPPPLPPPVSQVDAAIGLLMPPLQTPVNLSVFCDHNYTVEDTMHQRKRIHQLEQQVEKLRKKLKTAQQRCRRQERQLEKLKEVVHFQKEKDDVSERGYVILPNDYFEIVEVPA [T84L],1.48
14,MVQSCSAYGCKNRYDKDKPVSFHKFPLTRPSLCKEWEAAVRRKNFKPTKYSSICSEHFTPDCFKRECNNKLLKENAVPTIFLCDEPHDKKEDLLEPQEQLPPPPLPPPVSQVDAAIGLLMPPLQTPVNLSVFCDHNYTVEDTMHQRKRIHQLEQQVEKLRKKLKTAQQRCRRQERQLEKLKEVVHFQKEKDDVSERGYVILPNDYFEIVEVPA [T84D],0.604
15,MVQSCSAYGCKNRYDKDKPVSFHKFPLTRPSLCKEWEAAVRRKNFKPTKYSSICSEHFTPDCFKRECNNKLLKENAVPTIFLCGEPHDKKEDLLEPQEQLPPPPLPPPVSQVDAAIGLLMPPLQTPVNLSVFCDHNYTVEDTMHQRKRIHQLEQQVEKLRKKLKTAQQRCRRQERQLEKLKEVVHFQKEKDDVSERGYVILPNDYFEIVEVPA [T84G],0.785
16,MVQSCSAYGCKNRYDKDKPVSFHKFPLTRPSLCKEWEAAVRRKNFKPTKYSSICSEHFTPDCFKRECNNKLLKENAVPTIFLCKEPHDKKEDLLEPQEQLPPPPLPPPVSQVDAAIGLLMPPLQTPVNLSVFCDHNYTVEDTMHQRKRIHQLEQQVEKLRKKLKTAQQRCRRQERQLEKLKEVVHFQKEKDDVSERGYVILPNDYFEIVEVPA [T84K],2.57
17,MVQSCSAYGCKNRYDKDKPVSFHKFPLTRPSLCKEWEAAVRRKNFKPTKYSSICSEHFTPDCFKRECNNKLLKENAVPTIFLCTQPHDKKEDLLEPQEQLPPPPLPPPVSQVDAAIGLLMPPLQTPVNLSVFCDHNYTVEDTMHQRKRIHQLEQQVEKLRKKLKTAQQRCRRQERQLEKLKEVVHFQKEKDDVSERGYVILPNDYFEIVEVPA [E85Q],1.16
18,MVQSCSAYGCKNRYDKDKPVSFHKFPLTRPSLCKEWEAAVRRKNFKPTKYSSICSEHFTPDCFKRECNNKLLKENAVPTIFLCTCPHDKKEDLLEPQEQLPPPPLPPPVSQVDAAIGLLMPPLQTPVNLSVFCDHNYTVEDTMHQRKRIHQLEQQVEKLRKKLKTAQQRCRRQERQLEKLKEVVHFQKEKDDVSERGYVILPNDYFEIVEVPA [E85C],0.285
19,MVQSCSAYGCKNRYDKDKPVSFHKFPLTRPSLCKEWEAAVRRKNFKPTKYSSICSEHFTPDCFKRECNNKLLKENAVPTIFLCTFPHDKKEDLLEPQEQLPPPPLPPPVSQVDAAIGLLMPPLQTPVNLSVFCDHNYTVEDTMHQRKRIHQLEQQVEKLRKKLKTAQQRCRRQERQLEKLKEVVHFQKEKDDVSERGYVILPNDYFEIVEVPA [E85F],0.389
20,MVQSCSAYGCKNRYDKDKPVSFHKFPLTRPSLCKEWEAAVRRKNFKPTKYSSICSEHFTPDCFKRECNNKLLKENAVPTIFLCTDPHDKKEDLLEPQEQLPPPPLPPPVSQVDAAIGLLMPPLQTPVNLSVFCDHNYTVEDTMHQRKRIHQLEQQVEKLRKKLKTAQQRCRRQERQLEKLKEVVHFQKEKDDVSERGYVILPNDYFEIVEVPA [E85D],0.708
21,MVQSCSAYGCKNRYDKDKPVSFHKFPLTRPSLCKEWEAAVRRKNFKPTKYSSICSEHFTPDCFKRECNNKLLKENAVPTIFLCTGPHDKKEDLLEPQEQLPPPPLPPPVSQVDAAIGLLMPPLQTPVNLSVFCDHNYTVEDTMHQRKRIHQLEQQVEKLRKKLKTAQQRCRRQERQLEKLKEVVHFQKEKDDVSERGYVILPNDYFEIVEVPA [E85G],1.14
22,MVQSCSAYGCKNRYDKDKPVSFHKFPLTRPSLCKEWEAAVRRKNFKPTKYSSICSEHFTPDCFKRECNNKLLKENAVPTIFLCTHPHDKKEDLLEPQEQLPPPPLPPPVSQVDAAIGLLMPPLQTPVNLSVFCDHNYTVEDTMHQRKRIHQLEQQVEKLRKKLKTAQQRCRRQERQLEKLKEVVHFQKEKDDVSERGYVILPNDYFEIVEVPA [E85H],0.704
23,MVQSCSAYGCKNRYDKDKPVSFHKFPLTRPSLCKEWEAAVRRKNFKPTKYSSICSEHFTPDCFKRECNNKLLKENAVPTIFLCTLPHDKKEDLLEPQEQLPPPPLPPPVSQVDAAIGLLMPPLQTPVNLSVFCDHNYTVEDTMHQRKRIHQLEQQVEKLRKKLKTAQQRCRRQERQLEKLKEVVHFQKEKDDVSERGYVILPNDYFEIVEVPA [E85L],0.328
24,MVQSCSAYGCKNRYDKDKPVSFHKFPLTRPSLCKEWEAAVRRKNFKPTKYSSICSEHFTPDCFKRECNNKLLKENAVPTIFLCTPPHDKKEDLLEPQEQLPPPPLPPPVSQVDAAIGLLMPPLQTPVNLSVFCDHNYTVEDTMHQRKRIHQLEQQVEKLRKKLKTAQQRCRRQERQLEKLKEVVHFQKEKDDVSERGYVILPNDYFEIVEVPA [E85P],1.01
25,MVQSCSAYGCKNRYDKDKPVSFHKFPLTRPSLCKEWEAAVRRKNFKPTKYSSICSEHFTPDCFKRECNNKLLKENAVPTIFLCTIPHDKKEDLLEPQEQLPPPPLPPPVSQVDAAIGLLMPPLQTPVNLSVFCDHNYTVEDTMHQRKRIHQLEQQVEKLRKKLKTAQQRCRRQERQLEKLKEVVHFQKEKDDVSERGYVILPNDYFEIVEVPA [E85I],1.04
26,MVQSCSAYGCKNRYDKDKPVSFHKFPLTRPSLCKEWEAAVRRKNFKPTKYSSICSEHFTPDCFKRECNNKLLKENAVPTIFLCTAPHDKKEDLLEPQEQLPPPPLPPPVSQVDAAIGLLMPPLQTPVNLSVFCDHNYTVEDTMHQRKRIHQLEQQVEKLRKKLKTAQQRCRRQERQLEKLKEVVHFQKEKDDVSERGYVILPNDYFEIVEVPA [E85A],0.937
27,MVQSCSAYGCKNRYDKDKPVSFHKFPLTRPSLCKEWEAAVRRKNFKPTKYSSICSEHFTPDCFKRECNNKLLKENAVPTIFLCTMPHDKKEDLLEPQEQLPPPPLPPPVSQVDAAIGLLMPPLQTPVNLSVFCDHNYTVEDTMHQRKRIHQLEQQVEKLRKKLKTAQQRCRRQERQLEKLKEVVHFQKEKDDVSERGYVILPNDYFEIVEVPA [E85M],0.346
28,MVQSCSAYGCKNRYDKDKPVSFHKFPLTRPSLCKEWEAAVRRKNFKPTKYSSICSEHFTPDCFKRECNNKLLKENAVPTIFLCTRPHDKKEDLLEPQEQLPPPPLPPPVSQVDAAIGLLMPPLQTPVNLSVFCDHNYTVEDTMHQRKRIHQLEQQVEKLRKKLKTAQQRCRRQERQLEKLKEVVHFQKEKDDVSERGYVILPNDYFEIVEVPA [E85R],0.558
